From paper PMC8863222

Biological target: recombinant equine Keap1, GST-tagged, biotinylated (equine) (UniProt F6VZG9)
Experiment: BLI; biotinylated Keap1 (65 μg/ml) loaded on streptavidin-coated biosensors; various concentrations of Rev or Nrf2 in PBST (PBS, 0.1 mg/ml BSA, 0.002% Tween 20, pH 7.2); room temperature; Octet Red

Substance | Kd [nM]
recombinant equine Nrf2, His-tagged (natural protein) | 400
recombinant EIAV Rev, MBP-tagged (natural protein) | 494
